{"source": "patent US12031137B2", "about": "“Compositions comprising SASP modulators and senescence attenuators and uses thereof for modulating cellular senescence” (RSEM, LIMITED PARTNERSHIP, priority 2016, dated 2024)", "molecules": {"B1": {"name": "Trap N: NRP1 trap a1a2, aa about 22-265; SEQ ID NOs 85/86 (protein)", "chain": "FRNDKCGDTIKIESPGYLTSPGYPHSYHPSEKCEWLIQAPDPYQRIMINFNPHFDLEDRDCKYDYVEVFDGENENGHFRGKFCGKIAPPPVVSSGPFLFIKFVSDYETHGAGFSIRYELFKRGPECSQNYTTPSGVIKSPGFPEKYPNSLECTYIVFAPKMSEIILEFESFDLEPDSNPPGGMFCRYDRLEIWDGFPDVGPHIGRYCGQKTPGRIRSSSGILSMVFYTDSAIAKEGFSANYSVLRSGSKENLYFQG"}, "B2": {"name": "Trap AR: NRP1 trap a2b1, aa about 22-26 and 143-424; SEQ ID NOs 63/64 (protein)", "chain": "MERGLPLLCAVLALVLAPAGAFRNDKRGPECSQNYTTPSGVIKSPGFPEKYPNSLECTYIVFAPKMSEIILEFESFDLEPDSNPPGGMFCRYDRLEIWDGFPDVGPHIGRYCGQKTPGRIRSSSGILSMVFYTDSAIAKEGFSANYSVLQSSVSEDFKCMEALGMESGEIHSDQITASSQYSTNWSAERSRLNYPENGWTPGEDSYREWIQVDLGLLRFVTAVGTQGAISKETKKKYYVKTYKIDVSSNGEDWITIKEGNKPVLFQGNTNPTDVVVAVFPKPLITRFVRIKPATWETGISMRFEVYGCRSGSKENLYFQG"}, "B3": {"name": "Trap AK: NRP1 trap a2b1b2, aa about 22-26 and 143-583; SEQ ID NOs 61/62 (protein)", "chain": "MERGLPLLCAVLALVLAPAGAFRNDKRGPECSQNYTTPSGVIKSPGFPEKYPNSLECTYIVFAPKMSEIILEFESFDLEPDSNPPGGMFCRYDRLEIWDGFPDVGPHIGRYCGQKTPGRIRSSSGILSMVFYTDSAIAKEGFSANYSVLQSSVSEDFKCMEALGMESGEIHSDQITASSQYSTNWSAERSRLNYPENGWTPGEDSYREWIQVDLGLLRFVTAVGTQGAISKETKKKYYVKTYKIDVSSNGEDWITIKEGNKPVLFQGNTNPTDVVVAVFPKPLITRFVRIKPATWETGISMRFEVYGCKITDYPCSGMLGMVSGLISDSQITSSNQGDRNWMPENIRLVTSRSGWALPPAPHSYINEWLQIDLGEEKIVRGIIIQGGKHRENKVFMRKFKIGYSNNGSDWKMIMDDSKRKAKSFEGNNNYDTPELRTFPALSTRFIRIYPERATHGGLGLRMELLGCRSGSKENLYFQG"}, "B4": {"name": "Trap AJ: NRP1 trap a2b1b2c, aa about 22-26, 143-630 and 701-856; SEQ ID NOs 59/60 (protein)", "chain": "MERGLPLLCAVLALVLAPAGAFRNDKRGPECSQNYTTPSGVIKSPGFPEKYPNSLECTYIVFAPKMSEIILEFESFDLEPDSNPPGGMFCRYDRLEIWDGFPDVGPHIGRYCGQKTPGRIRSSSGILSMVFYTDSAIAKEGFSANYSVLQSSVSEDFKCMEALGMESGEIHSDQITASSQYSTNWSAERSRLNYPENGWTPGEDSYREWIQVDLGLLRFVTAVGTQGAISKETKKKYYVKTYKIDVSSNGEDWITIKEGNKPVLFQGNTNPTDVVVAVFPKPLITRFVRIKPATWETGISMRFEVYGCKITDYPCSGMLGMVSGLISDSQITSSNQGDRNWMPENIRLVTSRSGWALPPAPHSYINEWLQIDLGEEKIVRGIIIQGGKHRENKVFMRKFKIGYSNNGSDWKMIMDDSKRKAKSFEGNNNYDTPELRTFPALSTRFIRIYPERATHGGLGLRMELLGCEVEAPTAGPTTPNGNLVDECDDDQANCHSGTGDDFQLTGGTTVLATEKPTVIDSTIQSEFPTYGFNCEFGWGSHKTFCHWEHDNHVQLKWSVLTSKTGPIQDHTGDGNFIYSQADENQKGKVARLVSPVVYSQNSAHCMTFWYHMSGSHVGTLRVKLRYQKPEEYDQLVWMAIGHQGDHWKEGRVLLHKSLKLYQVIFEGEIGKGNLGGIAVDDISINNHISQEDCAKPADLDKKNPEIKIDETGSTPGYEGEGEGDKNISRKPGNVLKTLDPRSGSKENLYFQG"}, "B5": {"name": "Trap AS: NRP1 trap a2b1c, aa about 22-26, 143-430 and 584-856; SEQ ID NOs 65/66 (protein)", "chain": "MERGLPLLCAVLALVLAPAGAFRNDKRGPECSQNYTTPSGVIKSPGFPEKYPNSLECTYIVFAPKMSEIILEFESFDLEPDSNPPGGMFCRYDRLEIWDGFPDVGPHIGRYCGQKTPGRIRSSSGILSMVFYTDSAIAKEGFSANYSVLQSSVSEDFKCMEALGMESGEIHSDQITASSQYSTNWSAERSRLNYPENGWTPGEDSYREWIQVDLGLLRFVTAVGTQGAISKETKKKYYVKTYKIDVSSNGEDWITIKEGNKPVLFQGNTNPTDVVVAVFPKPLITRFVRIKPATWETGISMRFEVYGCKITDYPEVEAPTAGPTTPNGNLVDECDDDQANCHSGTGDDFQLTGGTTVLATEKPTVIDSTIQSEFPTYGFNCEFGWGSHKTFCHWEHDNHVQLKWSVLTSKTGPIQDHTGDGNFIYSQADENQKGKVARLVSPVVYSQNSAHCMTFWYHMSGSHVGTLRVKLRYQKPEEYDQLVWMAIGHQGDHWKEGRVLLHKSLKLYQVIFEGEIGKGNLGGIAVDDISINNHISQEDCAKPADLDKKNPEIKIDETGSTPGYEGEGEGDKNISRKPGNVLKTLDPRSGSKENLYFQG"}, "B6": {"name": "Trap Z: NRP1 trap a1a2-b1b2-c, aa about 22-856, E319K, D320K; SEQ ID NOs 71/72 (protein)", "chain": "FRNDKCGDTIKIESPGYLTSPGYPHSYHPSEKCEWLIQAPDPYQRIMINFNPHFDLEDRDCKYDYVEVFDGENENGHFRGKFCGKIAPPPVVSSGPFLFIKFVSDYETHGAGFSIRYELFKRGPECSQNYTTPSGVIKSPGFPEKYPNSLECTYIVFAPKMSEIILEFESFDLEPDSNPPGGMFCRYDRLEIWDGFPDVGPHIGRYCGQKTPGRIRSSSGILSMVFYTDSAIAKEGFSANYSVLQSSVSEDFKCMEALGMESGEIHSDQITASSQYSTNWSAERSRLNYPENGWTPGKKSYREWIQVDLGLLRFVTAVGTQGAISKETKKKYYVKTYKIDVSSNGEDWITIKEGNKPVLFQGNTNPTDVVVAVFPKPLITRFVRIKPATWETGISMRFEVYGCKITDYPCSGMLGMVSGLISDSQITSSNQGDRNWMPENIRLVTSRSGWALPPAPHSYINEWLQIDLGEEKIVRGIIIQGGKHRENKVFMRKFKIGYSNNGSDWKMIMDDSKRKAKSFEGNNNYDTPELRTFPALSTRFIRIYPERATHGGLGLRMELLGCEVEAPTAGPTTPNGNLVDECDDDQANCHSGTGDDFQLTGGTTVLATEKPTVIDSTIQSEFPTYGFNCEFGWGSHKTFCHWEHDNHVQLKWSVLTSKTGPIQDHTGDGNFIYSQADENQKGKVARLVSPVVYSQNSAHCMTFWYHMSGSHVGTLRVKLRYQKPEEYDQLVWMAIGHQGDHWKEGRVLLHKSLKLYQVIFEGEIGKGNLGGIAVDDISINNHISQEDCAKPADLDKKNPEIKIDETGSTPGYEGEGEGDKNISRKPGNVLKTLDPRSGSKENLYFQG"}, "B7": {"name": "Trap AC: NRP1 trap a1a2-b1b2-c, aa about 22-856, D320K; SEQ ID NOs 75/76 (protein)", "chain": "B6 chain with K298E"}, "B8": {"name": "Trap AB: NRP1 trap a1a2-b1b2-c, aa about 22-856, E348K, S346A; SEQ ID NOs 73/74 (protein)", "chain": "B6 chain with K298E, K299D, S325A, E327K"}}, "key": {"human VEGF165": {"target": "T1, human VEGF165 (Homo sapiens, UniProt P15692)", "T1 construct": "made in house; host or cells: HEK293T", "T1 sequence (P15692 27-191 isoform P15692-4)": "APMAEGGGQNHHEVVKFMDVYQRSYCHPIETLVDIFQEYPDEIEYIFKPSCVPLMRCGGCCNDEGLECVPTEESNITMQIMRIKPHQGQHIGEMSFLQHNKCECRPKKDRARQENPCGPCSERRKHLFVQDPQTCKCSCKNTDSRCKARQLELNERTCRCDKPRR", "experiment": "AP-VEGF165 binding assay on plate-coated purified traps (saturation curves, KD)", "conditions": "AP-VEGF165 ligand; for Kd: read-out: VEGF165 binding (dissociation constant)", "description": "Production of AP-VEGF165. the coding sequence of the human VEGF165 variant 1 (NM_001025366) was sub-cloned in the pAPtag5 vector (GenHunter), in-frame with an Alkaline Phosphatase domain (AP-VEGF165). HEK293T cells were transfected with the AP-VEGF165 construct using a polyethylenimine (PEI) transfection method. Following the overnight transfection step, cells were cultured for an additional 60 hr in serum free media (In vitrogen). The cell media were collected and concentrated on a PES device (Pierce). The concentrated AP-VEGF165 ligand was analysed on PAGE-SDS and quantified using SimplyBlue safe stain (Life technologies).\n(§1) Sema 3A and AP-VEGF165 binding assays. Saturation curves for the determinations of KD of binding to SEMA 3A or VEGF165 were obtained as follow. Wells of high protein binding 96 well plates (Maxisorp, Nunc) were coated with purified traps diluted in PBS and blocked afterward with binding buffer (PBS containing 2% casein and 0.05% Tween 20). The SEMA3A-FC (R&D systems) or AP-VEGF165 ligands were diluted in binding buffer over an extensive range of concentrations and added to wells. Following an overnight incubation, wells were washed with PBS containing 0.05% tween. Bound SEMA3a-FC was detected using an HRP-linked anti-Human IgG (Biorad) and ECL substrate (Pierce). Alternatively, bound AP-VEGF165 was detected using CPD star substrate (Roche). The Chemiluminescent signal was acquired on a TECAN reader. Dissociation constant (KD) were determined by non-linear curve fitting using the Graph Pad prism software.\n(§2) The relative affinity of traps of the present invention to SEMA3A and VEGF has been assessed. Traps were prepared as described in Example 8."}, "SEMA3A-FC": {"tested_on": "SEMA3A-FC", "experiment": "Sema 3A binding assay on plate-coated purified traps (saturation curves, KD)", "conditions": "for Binding to SEMA3A: Table 2, Yes/No; for Kd: traps coated on plate, overnight incubation, read-out: SEMA 3A-FC binding (dissociation constant)", "description": "as §1, §2"}}, "note": "Substitutions are numbered along the chain they refer to. Names and notes keep the numbering of the source."}
{"molecule": "Trap S: NRP1 trap a1a2-b1-c, aa about 22-430 and 584-856; SEQ ID NOs 93/94", "values": [{"measurement": "Kd", "setting": "human VEGF165", "result": 24.6, "unit": "nM"}, {"measurement": "Binding to SEMA3A", "setting": "SEMA3A-FC", "result": "Yes"}]}
{"molecule": "Trap W: NRP1 trap a1a2-b1-c (in part), aa about 22-430 and 584-795; SEQ ID NOs 87/88", "values": [{"measurement": "Kd", "setting": "human VEGF165", "result": 20.7, "unit": "nM"}, {"measurement": "Binding to SEMA3A", "setting": "SEMA3A-FC", "result": "Yes"}, {"measurement": "Kd", "setting": "SEMA3A-FC", "result": 1.14, "unit": "nM"}]}
{"molecule": "B1", "values": [{"measurement": "Kd", "setting": "human VEGF165", "result": "> 250", "unit": "nM"}, {"measurement": "Binding to SEMA3A", "setting": "SEMA3A-FC", "result": "No"}, {"measurement": "Kd", "setting": "SEMA3A-FC", "result": "> 1000", "unit": "nM"}]}
{"molecule": "B2", "values": [{"measurement": "Binding to SEMA3A", "setting": "SEMA3A-FC", "result": "Yes"}]}
{"molecule": "B3", "values": [{"measurement": "Binding to SEMA3A", "setting": "SEMA3A-FC", "result": "Yes"}]}
{"molecule": "B4", "values": [{"measurement": "Binding to SEMA3A", "setting": "SEMA3A-FC", "result": "Yes"}]}
{"molecule": "B5", "values": [{"measurement": "Binding to SEMA3A", "setting": "SEMA3A-FC", "result": "Yes"}]}
{"molecule": "B6", "values": [{"measurement": "Kd", "setting": "human VEGF165", "result": 67, "unit": "nM"}, {"measurement": "Binding to SEMA3A", "setting": "SEMA3A-FC", "result": "Yes"}]}
{"molecule": "B7", "values": [{"measurement": "VEGF165 binding (dissociation constant)", "setting": "human VEGF165", "result": "No binding"}, {"measurement": "Binding to SEMA3A", "setting": "SEMA3A-FC", "result": "Yes"}, {"measurement": "Kd", "setting": "SEMA3A-FC", "result": 4, "unit": "nM"}]}
{"molecule": "B8", "values": [{"measurement": "Kd", "setting": "human VEGF165", "result": 29.5, "unit": "nM"}, {"measurement": "Binding to SEMA3A", "setting": "SEMA3A-FC", "result": "No"}]}
